Molecular target: T1, natural Fel d1 (Indoor Biotech, #NA-FD1-2) (cat, UniProt P30438 23-92; P30440 18-109)
T1 construct: Bought natural heterodimeric glycoprotein, chains linked by disulfide bonds; also called nFel d1; nFel d 1
Experiment: SPR (Biacore), mAb captured, natural Fel d1 injected, 25 C;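 note: rate constants obtained by fitting association and dissociation phases to a one-to-one binding model, with Kd and half-life derived from those rate constants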
Protocol: Binding associative and dissociative rate constants (kₐ and kd, respectively) and calculated equilibrium dissociation constants and dissociative half-lives (KD and t_{1/2}, respectively) for antigen binding to anti-Fel d1 monoclonal antibodies were determined using a real-time surface plasmon resonance biosensor (Biacore T200 or Biacore 2000) assay. […] Antibody-antigen association was monitored for 3 to 5 minutes, and the dissociation of antigen from the captured monoclonal antibody (in running buffer alone at 25° C.) was monitored for 10 or 15 minutes. Kinetic association (kₐ) and dissociation (kd) rate constants were determined by processing and fitting the data to a 1:1 binding model using Scrubber 2.0 curve fitting software. Binding dissociation equilibrium constants (KD) and dissociative half-lives (t_{1/2}) were calculated from the kinetic rate constants as: KD=kd/kₐ and t_{1/2}=ln(2)/kd.

T1 sequence (P30438 other isoform, or with tags, fused parts or gaps, chain 1 of 2): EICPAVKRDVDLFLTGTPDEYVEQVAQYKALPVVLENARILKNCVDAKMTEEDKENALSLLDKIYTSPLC
T1 sequence (P30440 18-109, chain 2 of 2): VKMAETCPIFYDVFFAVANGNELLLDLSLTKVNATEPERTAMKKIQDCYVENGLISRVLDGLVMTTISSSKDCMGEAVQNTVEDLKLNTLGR

Binder	Kd	koff	kon	t1/2
H1M1234N (antibody, V domains shown, chimeric: human variable domains, mouse constant domains (H1M prefix, mouse Fc)) VH: QVQLQQSGPGLVKSSQTLSLTCAISGDSVSSNSVAWNWIRQSPSRGLEWLGRTYYRSKWYNDYAVSVKSRININPDTSKNHFSLQLNSVTPEDTAVYFCARAWNWYYLDYWGQGTLVTVSS VL: not shown	18.3 nM	0.00679 s⁻¹	371000 M⁻¹ s⁻¹	2 min
H1M1230N (antibody, V domains shown, chimeric: human variable domains, mouse constant domains (H1M prefix, mouse Fc)) VH: EVQLVESGGGLVQPGGSLRLSCTASGFIFSNFWMTWVRQAPGKGLEWVANIKQDGSETYCVDSVKGRFTISRDHAKNSLFLQMNSLRAEDTAVYYCARGAGTIYYYGMDVWGQGTTVIVSS VL: DIQMTQSPSSVSASVGDRLTITCRASQDISSWLTWYQQKPGKAPNLLIYAASGLQSGVPSRFSGSGSGTDFTLTISNLQPEDFATYYCQQANSFPLTFGQGTRLEIK	3.37 nM	0.000869 s⁻¹	258000 M⁻¹ s⁻¹	13 min
H2M1233N (antibody, mouse IgG2, V domains shown, chimeric: human variable domains, mouse IgG2 Fc (H2M prefix)) VH: QVVLVESGGGVVQPGRSLRLSCAASGFTFSSYGMHWVRQAPGKGLEWVAVIWYDGSNKYYVDSVKGRFTISRDNSNNTIYLQMNSLRAEDTAVYYCARSLIPVAGTDPIFGYWGQGTLVTVSS VL: DIQMTQSPSTLSASVGDRVTITCRASQSVSSWLAWYQQKPGKAPKLLIFKASGLESGVPFRFSGSGSGTEFTLTISSLQPDDFATYYCQQYNTYSPTFGQGTKVEIK	1.4 nM	0.000353 s⁻¹	253000 M⁻¹ s⁻¹	33 min
H1M1241N (antibody, V domains shown, chimeric: human variable domains, mouse constant domains (H1M prefix, mouse Fc)) VH: EVQLVESGGGLVKPGGSLRLSCAASGFTFSSYSMNWVRQAPGKGLEWVSSISSRSSYIYYADSVKGRFTISRDNAKNSLYLQMNSLRAEDTAVYYCARDHIVVVPGASYYYYGMDVWGQGTTVTVSS VL: DIQMTQSPSSLSASVGDRVTITCRASQGIRNDLGWYQQKPGKAPKRLISAASSLQSGVPSRFSGSGSGTEFTLTISSLQPEDFATYYCLQHNSYPLTFGGGTKVEIK	3.63 nM	0.000662 s⁻¹	182000 M⁻¹ s⁻¹	17 min
H2M1236N (antibody, mouse IgG2, V domains shown, chimeric: human variable domains, mouse IgG2 Fc (H2M prefix)) VH: QVQLQESGPGLVKPSETLSLTCTVSGGSISNYYWSWIRQPPGKGLEWIGYIYYSGRTNYNPSLKSRVTISVDTSKNQFSLKLRSVTAADTAVYYCARHRITRTADSFDYWGQGTLVTVSS VL: DIQMTQSPSSLSASVGDRVTITCQASQDITNYLNWYQQKPGKAPKLLIYDASNLETGVPSRFSGSGSGTDFTFTISSLQPEDVATFYCHQYGDLPYTFGQGTKLEIK	4.55 nM	0.00142 s⁻¹	312000 M⁻¹ s⁻¹	8 min

The remaining binders from weak to strong by Kd, led by results:

Kd	koff	kon	t1/2	Binder
3.14 nM	0.000604 s⁻¹	192000 M⁻¹ s⁻¹	19 min	H2M1242N (antibody, mouse IgG2, V domains shown, chimeric: human variable domains, mouse IgG2 Fc (H2M prefix)) VH: EVQLVESGGGLVRPGGSLRLSCAASGFTFTSYAMNWVRQAPGKGLEWVSSISSYSSYIYIADSVKGRFTLSRDNAKNSLYLQMHSLRPEDTAVYFCAREGYSAYSYFDFWGRGTLVTVSS VL: DIQMTQSPSTLSASVGDRVTITCRASQSVISWLAWYQQKPGKAPKLLIHRASSLESGVPSRFSGSGSGTEFTLTISGLQPDDFATYYCQQYNTYFPTFGQGTKVEVK
0.982 nM	0.000276 s⁻¹	281000 M⁻¹ s⁻¹	42 min	H2M1237N (antibody, mouse IgG2, V domains shown, chimeric: human variable domains, mouse IgG2 Fc (H2M prefix)) VH: QVVLVESGGGVVQPGRSLRLSCAASGFTFSSYGMHWVRQAPGKGLEWVAVIWYDGSIKYYADSVKGRFTISRDNSNNTIYLQMNSLRAEDTAVYYCARALIPVAGTDPIFGYWGQGTLVTVSS VL: DIQMTQSPSTLSASVGDRVTITCRASQSVSSWLAWYQQKPGKAPKLLIFKTSGLESGVPFRFSGSGSGTEFTLTISSLQPDDFATYYCQQYNTYSPTFGQGTKVEIK
0.878 nM	0.000965 s⁻¹	1.1e+06 M⁻¹ s⁻¹	12 min	H4H2594S (antibody, human IgG4, V domains shown, human IgG4 Fc (H4H prefix)) VH: EVQLVESGGGLVKPGGSLRLSCAASGFTFSDYYMNWIRQAPGKGLEWVSYISSSGSSIYYADSVKGRFTISRDNAKNSLYLLMNSLRAEDTAVYYCARDGKYNSSPGDYWGQGTLVTVSS VL: DIQMTQSPSSLSASVGDRVTIACRASQGISNYLAWFQQKPGKAPKSLIYAASSLQSGVPSKFSGSGSGTDFTLTISSLQPEDFATYYCQQYNSYPLTFGGGTKVEIKR

Reference: patent publication US20220025029A1 (Regeneron, published 2022)
